# In US20090298167A1:
# Molecular target: human IL-21 (human) (UniProt Q9HBE4)
# Test: cell-based or functional assay
# Chain of human IL-21 (human) (Q9HBE4 25-162 limits assumed): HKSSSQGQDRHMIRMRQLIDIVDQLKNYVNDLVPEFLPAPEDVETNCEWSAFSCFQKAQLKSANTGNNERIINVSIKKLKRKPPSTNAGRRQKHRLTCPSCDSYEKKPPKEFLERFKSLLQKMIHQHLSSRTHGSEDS
substance,measurement,value
human IL-21R-Fc (from UniProt Q9HBE5 20-232) (Fc fusion),Human IL-21R-BaF3 Neutralization IC50,0.2 nM
